Assays:
HA-VEGFR2-TMD = target: T1, HA-VEGFR2-TMD; assay: pull-down
T1 chain: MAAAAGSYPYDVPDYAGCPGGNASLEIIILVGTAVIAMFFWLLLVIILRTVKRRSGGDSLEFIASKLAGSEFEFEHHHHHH

HA-VEGFR3-TMD = target: T2, HA-VEGFR3-TMD; assay: pull-down
T2 chain: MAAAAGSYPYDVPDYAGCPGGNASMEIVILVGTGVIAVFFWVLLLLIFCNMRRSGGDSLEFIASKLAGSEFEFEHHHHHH

- binding result (HA-VEGFR2-TMD): binds
- binding result (HA-VEGFR3-TMD): binds
B1: Flag-VE-TMD (domain or fragment)
chain: MAAAAGSDYKDDDDKGCPGGNASVSIQAVVAILLCILTITVITLLIFLRRRSGGLNDIFEAQKIEWHESSEFEFEHHHHHH
